± gives the half width of the 95% confidence interval.
What was measured:
[1] = folding stability dG unfold from trypsin proteolysis; higher = more stable
How it was run: (§1)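 Unfolding free energy was derived, per protease or combined, by relating Bayesian-fitted K50 values from sequencing counts to a sequence-predicted unfolded-state K50 and a shared folded-state K50. The underlying digests exposed cysteine-free mini-proteins under 80 residues, in a PA-tagged cDNA display construct, to trypsin and chymotrypsin at 11 threefold-diluted concentrations and to a no-protease condition. A filter kept only designs with AlphaFold2 dimer inter-PAE above 15.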

[2] = folding stability dG unfold from chymotrypsin proteolysis; higher = more stable
How it was run: as §1

[3] = folding stability dG unfold (combined trypsin and chymotrypsin); higher = more stable
How it was run: as §1

With “SAVVLKEPGPVTTVVTTDPATGVTTTVTTDPSAGTTTVTTTDPASAAVTTTTYTTLPDGTPVPTTTTTPASA [r9_1073_JUSTAS]” the “folding stability dG unfold” value [1] was 1.22 ± 0.031 kcal/mol, the “folding stability dG unfold” value [2] was 0.86 ± 0.032 kcal/mol and the “folding stability dG unfold” value [3] was 1.05 ± 0.038 kcal/mol.

With “SAWIPAKEIAKYLAKELQEKMPHPGMKIPVDVETNPEENYVRVDIDIEHPGDGGKWKFEIYIPPGDTIVSAG [r14_849_TrROS]” the “folding stability dG unfold” value [1] was 0.664 ± 0.038 kcal/mol, the “folding stability dG unfold” value [2] was 1.8 ± 0.095 kcal/mol and the “folding stability dG unfold” value [3] was 1.29 ± 0.12 kcal/mol.

With “SAWNFKIEEVEVDPNDGRIWFTVKIPPNNPELAEEIAEELQDYGIKVKLINPDLPPGQTIIVQIEVKDPSAG [r14_354_TrROS]” the “folding stability dG unfold” value [1] was 1.3 ± 0.096 kcal/mol, the “folding stability dG unfold” value [2] was 2.09 ± 0.18 kcal/mol and the “folding stability dG unfold” value [3] was 1.83 ± 0.18 kcal/mol.

With “SAWYIIKIEIYNPGQNEPIASHTFMVPEEDLDAFKEKIADQFGMNPGWQIKVEIQPIPPVRDKDGEWKWSAG [r14_297_TrROS]” the “folding stability dG unfold” value [1] was 1.54 ± 0.036 kcal/mol, the “folding stability dG unfold” value [2] was 2.13 ± 0.077 kcal/mol and the “folding stability dG unfold” value [3] was 1.91 ± 0.086 kcal/mol.

In the case of “SAYKITIKITITDPVTGETTTITVELISSEEEAKKEAEKLAASYPGKKVTIDLVEVVPVPPLSEEELKLSSA [r9_421_JUSTAS]”, the “folding stability dG unfold” value [1] is reported as 1.91 ± 0.081 kcal/mol, the “folding stability dG unfold” value [2] is reported as 2.68 ± 0.054 kcal/mol and the “folding stability dG unfold” value [3] is reported as 2.43 ± 0.12 kcal/mol.

In the case of “SDALKNIPFEIVEIDPPPPDRPIPAGGTVRITVYNPLTPGQPFTFDVRFIPGEGTLIAEIGGLPVEIPIGSA [r9_243_TrMRF]”, the “folding stability dG unfold” value [1] is reported as 2.53 ± 0.079 kcal/mol, the “folding stability dG unfold” value [2] is reported as 3.46 ± 0.082 kcal/mol and the “folding stability dG unfold” value [3] is reported as 2.94 ± 0.12 kcal/mol.

For “SDEDLEILRVEATPDTIRILFKIPSNPDLYIEVPITVFEDETSRRILINARILRPETGEVIAEIPFEIPLSA [r9_18_TrMRF]”, the “folding stability dG unfold” value [1] was 3.53 ± 0.16 kcal/mol, the “folding stability dG unfold” value [2] was 4.24 ± 0.13 kcal/mol and the “folding stability dG unfold” value [3] was 3.78 ± 0.24 kcal/mol.

In the case of “SDKVEIWIPIPDGFWVRIKYDKPGKREITIWMPEDNPEFRKHGSMDQFIKHLARKLGLDPDKVKVDMYPMSA [r9_401_TrROS]”, the “folding stability dG unfold” value [1] is reported as 3.13 ± 0.1 kcal/mol, the “folding stability dG unfold” value [2] is reported as 4.11 ± 0.098 kcal/mol and the “folding stability dG unfold” value [3] is reported as 3.69 ± 0.14 kcal/mol.

With “SDLDPNSTLVFSAPFPVSDPDALLEHAETVARELGPDVRVERVVFDPNTPNVAVVEVSVPGGTVTLVYSRSA [r9_1079_TrMRF]” the “folding stability dG unfold” value [1] was 1.24 ± 0.017 kcal/mol, the “folding stability dG unfold” value [2] was 1.36 ± 0.061 kcal/mol and the “folding stability dG unfold” value [3] was 1.33 ± 0.062 kcal/mol.

For “SDNFQPDMTFPVTEIGDDKVTMKYNGKPYYIPTSKITSPNVTVKITDGTVSEVSSPSPSPLPPENIKKLSSA [r9_842_JUSTAS]”, the “folding stability dG unfold” value [1] was -0.705 ± 0.24 kcal/mol, the “folding stability dG unfold” value [2] was -0.293 ± 0.35 kcal/mol and the “folding stability dG unfold” value [3] was -0.263 ± 0.42 kcal/mol.

For “SDPDAKLLPATFTFRDPLTGEEVTVEVTVYETSGYLLAPAKVTVTLPTKPRTLTATLLVDENGNVHLFVSSA [r9_1015_TrMRF]”, the “folding stability dG unfold” value [1] was 2.82 ± 0.2 kcal/mol, the “folding stability dG unfold” value [2] was 4.31 ± 0.08 kcal/mol and the “folding stability dG unfold” value [3] was 3.73 ± 0.17 kcal/mol.

With “SDPILEILKDAFQEFGIPVQVSIEPDPDGKRVIPIRIMSPKDMDENGMKMQEQTFPIKVNGKKWRVEISWSA [r9_489_TrROS]” the “folding stability dG unfold” value [1] was 1.45 ± 0.084 kcal/mol, the “folding stability dG unfold” value [2] was 1.31 ± 0.14 kcal/mol and the “folding stability dG unfold” value [3] was 1.41 ± 0.11 kcal/mol.

With “SDPNKPWTAEEIAKIIEEKILEEFDVEEIIPKELKVFPKEGTVKVKMLVKYKGEPGKYFELEVEISPEELSA [r9_1002_TrMRF]” the “folding stability dG unfold” value [1] was 1.58 ± 0.037 kcal/mol, the “folding stability dG unfold” value [2] was 2.9 ± 0.038 kcal/mol and the “folding stability dG unfold” value [3] was 2.52 ± 0.081 kcal/mol.

For “SDWHYIQIPFEITFKAPPEQARQFVEDLAENLGITDINVDNIEYDPNNGEVKVKVSISIMIPPPPPPEDDSA [r9_918_TrROS]”, the “folding stability dG unfold” value [1] was 2.36 ± 0.15 kcal/mol, the “folding stability dG unfold” value [2] was 3.36 ± 0.12 kcal/mol and the “folding stability dG unfold” value [3] was 2.73 ± 0.2 kcal/mol.

With “SDYYIINIKIEVYYDGKPVREIPIFILVPPEQALMIAETIAEMLPGYKVKIKINVYRIPEDDPELREAFGSA [r9_782_TrROS]” the “folding stability dG unfold” value [1] was 2.31 ± 0.077 kcal/mol, the “folding stability dG unfold” value [2] was 3.26 ± 0.044 kcal/mol and the “folding stability dG unfold” value [3] was 2.93 ± 0.18 kcal/mol.

In the case of “SEAEEAARKLAEELGLEVEVVEVDEETGTVTVRVRFEDEPTVTITITFDEETGELTVTIEVRPPPPPPPESA [r9_1119_TrROS_Hall]”, the “folding stability dG unfold” value [1] is reported as 3.49 ± 0.23 kcal/mol, the “folding stability dG unfold” value [2] is reported as 3.51 ± 0.54 kcal/mol and the “folding stability dG unfold” value [3] is reported as 3.72 ± 0.43 kcal/mol.

In the case of “SEAEIKIKEVDENGYLVLEIKVPKEEVEKLREKLKELFPNAEIVEVKYDEETGEVTIIVRLPDGKLYEFKSA [r9_1164_TrROS_Hall]”, the “folding stability dG unfold” value [1] is reported as 1.05 ± 0.076 kcal/mol, the “folding stability dG unfold” value [2] is reported as 1.05 ± 0.099 kcal/mol and the “folding stability dG unfold” value [3] is reported as 1.06 ± 0.13 kcal/mol.

For “SEDTVTIEVRAFPVKDKNGKPRFYVSIEFGNGPVSYPIPGLPEGMKEGETFTIEIPPENIKKVDISIMPYSA [r9_769_TrROS]”, the “folding stability dG unfold” value [1] was 2.09 ± 0.12 kcal/mol, the “folding stability dG unfold” value [2] was 2.09 ± 0.1 kcal/mol and the “folding stability dG unfold” value [3] was 1.97 ± 0.19 kcal/mol.

With “SEEEIEERIKKLAEELGFKVTEIKIEKTDNKLTVTVTITLPNGKKLTFTVTRDKNGKLTFTPEQLKKALKSA [r9_85_TrROS_Hall]” the “folding stability dG unfold” value [1] was 2.36 ± 0.038 kcal/mol, the “folding stability dG unfold” value [2] was 3.609 ± 0.022 kcal/mol and the “folding stability dG unfold” value [3] was 3.21 ± 0.07 kcal/mol.

With “SEEEIVEEPPPETRTLTLELVDPETGELVATITVSPDGTVTLTVRTPDGEEKTITVPEGMSLEEALAAALSA [r9_346_TrROS_Hall]” the “folding stability dG unfold” value [1] was 3.19 ± 0.21 kcal/mol, the “folding stability dG unfold” value [2] was 4.39 ± 0.24 kcal/mol and the “folding stability dG unfold” value [3] was 4.18 ± 0.45 kcal/mol.

With “SEEEYLVIEVEFEVENPEEAREFAERLARELPLDEIESLEVEVEPREVFVEGEPVGPVYRFRVRAVVRPRSA [r9_605_TrMRF]” the “folding stability dG unfold” value [1] was 2.62 ± 0.069 kcal/mol, the “folding stability dG unfold” value [2] was 2.98 ± 0.048 kcal/mol and the “folding stability dG unfold” value [3] was 2.77 ± 0.079 kcal/mol.

For “SEEPVEERDIVVKPGEEVKLELPEEPETVRVYVFNEDGELIEEREFPPGATPEELEGLKLPPGAVVRIVRSA [r9_215_TrROS_Hall]”, the “folding stability dG unfold” value [1] was 1.32 ± 0.036 kcal/mol, the “folding stability dG unfold” value [2] was 2.54 ± 0.029 kcal/mol and the “folding stability dG unfold” value [3] was 2.2 ± 0.045 kcal/mol.

For “SEFPESVPVDWVERELTFSSSSKEELEKKIKELLKNIEIEVSYDPKTNKYTLKIKFPSKEKAEKVEELLSSA [r9_764_JUSTAS]”, the “folding stability dG unfold” value [1] was 2.22 ± 0.067 kcal/mol, the “folding stability dG unfold” value [2] was 3.268 ± 0.026 kcal/mol and the “folding stability dG unfold” value [3] was 2.96 ± 0.14 kcal/mol.

In the case of “SEKPEFKIVKIEVVEVDEDGKTVKVRVVVEGPDGRLYEVEMTLEELKKLLEELGIDLEDIKPGDVIVIPPSA [r9_1078_TrROS_Hall]”, the “folding stability dG unfold” value [1] is reported as 3.75 ± 0.11 kcal/mol, the “folding stability dG unfold” value [2] is reported as 3.09 ± 0.073 kcal/mol and the “folding stability dG unfold” value [3] is reported as 3.58 ± 0.15 kcal/mol.

With “SEKPEVTIKIEVEEREDGYLVVRVEVTFPEDPEKVELTLEMSREEAEELAKKLAEELPGVKVKVEIVELPSA [r9_374_TrROS_Hall]” the “folding stability dG unfold” value [1] was 2.41 ± 0.17 kcal/mol, the “folding stability dG unfold” value [2] was 2.4 ± 0.17 kcal/mol and the “folding stability dG unfold” value [3] was 2.44 ± 0.14 kcal/mol.

With “SEKVKITIEVWRPPGWWYVKIKLPDNGQEITYPFDSAEDFKEQIKKWLGLPPDNVKITDVEVYPMPPDDFSA [r9_909_TrROS]” the “folding stability dG unfold” value [1] was 1.82 ± 0.11 kcal/mol, the “folding stability dG unfold” value [2] was 3.14 ± 0.081 kcal/mol and the “folding stability dG unfold” value [3] was 2.52 ± 0.22 kcal/mol.

Reference: the supplement of paper PMC12764529
